Source: patent publication US20250215104A1 (WALDEN BIOSCIENCES, published 2025)
Positions count from the first letter of the chain named. Names may count otherwise.

B1: suPAR_DB05_E04 (scFv, V domains shown)
VH: QVQLVQSGAEVKKPGASVKVSCKASGYSFTSNYMHWVRQAPGQGLEWMGWIDHENGNTIYDQKFQGRVTMTRDTSTSTVYMELSSLRSEDTAVYYCARGYDVDWFVYWGQGTLVTVSS
VL: DIQMTQSPSSLSASVGDRVTITCSARSSVSYMYWYQQKPGKAPKLLIYRTSNLASGVPSRFSGSGSGTDFTLTISSLQPEDFATYYCQQYHSYPPTFGGGTKVEIK
notes: Screened as scFv
B2: suPAR_DB05_D10 (scFv, V domains shown)
VH: B1 VH with S28T, T30S, S31N, N32Y, M34I, Y100T
VL: B1 VL with S24R, S27Q
notes: Screened as scFv
B3: suPAR_DB05_C11 (scFv, V domains shown)
VH: B1 VH with S28I, N32Y, H53P, E54Y, N55S, N57A, I59N, D61A
VL: B1 VL with S24R, V29I
notes: Screened as scFv
B4: suPAR_DB05_D01 (scFv, V domains shown)
VH: B1 VH with Y27H, S28T, F29S, S31N, N32Y, N55G, I59S
VL: B1 VL
notes: Screened as scFv
B5: suPAR_DB05_C09 (scFv, V domains shown)
VH: QVQLVQSGAEVKKPGASVKVSCKASGYTFTGYYMHWVRQAPGQGLEWMGWISPDSGATKVAQKFQGRVTMTRDTSTSTVYMELSSLRSEDTAVYYCARGYDVDWFVYWGQGTLVTVSS
VL: B1 VL
notes: Screened as scFv
B6: suPAR_DB05_C07 (scFv, V domains shown)
VH: B1 VH with S28T, N32H, M34V, N55G, N57S, I59S
VL: B1 VL with S24R, S27Q
notes: Screened as scFv
B7: suPAR_DB05_E02 (scFv, V domains shown)
VH: B5 VH with G31S, S52D, P53L, D54N, A57G, T58A, V60Y, K63R
VL: B1 VL
notes: Screened as scFv
B8: suPAR_DB05_E03 (scFv, V domains shown)
VH: B1 VH with Y27H, S28T, F29L, T30N, N32Y, M34I, H53P, E54S, N55G
VL: B1 VL
notes: Screened as scFv
B9: suPAR_DB05_E01 (scFv, V domains shown)
VH: B1 VH with S28T, S31N, N32Y
VL: B1 VL with S24R
notes: Screened as scFv
B10: suPAR_DB05_C05 (scFv, V domains shown)
VH: QVQLVQSGAEVKKPGASVKVSCKASGYNIKSYYIHWVRQAPGQGLEWMGWIDPNSGGTNYAQNFQGRVTMTRDTSTSTVYMELSSLRSEDTAVYYCARGYDVDWFVYWGQGTLVTVSS
VL: B1 VL
notes: Screened as scFv
B11: suPAR_DB05_D03 (scFv, V domains shown)
VH: B1 VH with S28T, T30G, S31N, N32Y, D61A, Y100N
VL: B1 VL
notes: Screened as scFv
B12: suPAR_DB05_D06 (scFv, V domains shown)
VH: B1 VH with S28T, T30S, N32Y, Y100D
VL: B1 VL
notes: Screened as scFv
B13: suPAR_DB05_E05 (scFv, V domains shown)
VH: B1 VH with S28N, S31N, N32Y, E54S, N57S
VL: B1 VL
notes: Screened as scFv
B14: suPAR_DB05_C03 (scFv, V domains shown)
VH: B1 VH with S28T, S31N, N32Y, N55G, I59S, D61A
VL: B1 VL with S24R
notes: Screened as scFv
B15: suPAR_DB05_C06 (scFv, V domains shown)
VH: B10 VH with Y27F, N63K
VL: B1 VL
notes: Screened as scFv
B16: suPAR_DB05_D09 (scFv, V domains shown)
VH: B1 VH with S28T, N32Y, H53P, D61A
VL: B1 VL with N52S
notes: Screened as scFv
B17: suPAR_DB05_D05 (scFv, V domains shown)
VH: B1 VH with S28T, S31N, N32Y, E54S, N57S
VL: B1 VL with S24R, S27Q
notes: Screened as scFv
B18: suPAR_DB05_D11 (scFv, V domains shown)
VH: B1 VH with S28T, F29L, S31G, N32Y, H35Q, H53P, N57S
VL: B1 VL with R26S
notes: Screened as scFv
B19: suPAR_DB05_C08 (scFv, V domains shown)
VH: B1 VH with S28T, N32Y, H53P
VL: B1 VL with S24R, S27Q
notes: Screened as scFv
B20: suPAR_DB05_D08 (scFv, V domains shown)
VH: B5 VH with G31R, M48V, S52D, D54H, A57G, K59N, V60Y, V102I
VL: B1 VL with S27Q
notes: Screened as scFv
B21: suPAR_DB05_D02 (scFv, V domains shown)
VH: B1 VH with S28T, F29I, S31G, N57S
VL: B1 VL with S27Q, V29I
notes: Screened as scFv
B22: suPAR_DB05_D12 (scFv, V domains shown)
VH: B1 VH with Y27F, S28T, S31N, N32Y, M34F, H53P
VL: B1 VL
notes: Screened as scFv
B23: suPAR_DB05_C04 (scFv, V domains shown)
VH: B10 VH with Y27F, S31D, N54E, S55N, G57N, N59I, A61D, N63K
VL: B1 VL with S27Q, A54Q
notes: Screened as scFv
B24: WAb0001 (antibody, V domains shown)
VH: B10 VH with S31D, D52S, N54D, G57V, N63K
VL: B1 VL with S27Q
notes: constant regions not tied to this antibody; also called WAb CD0001
B25: WAb0009 (antibody, V domains shown)
VH: B1 VH with S28T, S31G, N32H, M34V
VL: B1 VL
notes: constant regions not tied to this antibody; also called WAb CD0009
B26: WAb0002 (antibody, V domains shown)
VH: B10 VH with S31D, D52S, N54S, G57V, N63K
VL: B1 VL with S27Q
notes: constant regions not tied to this antibody; also called WAb CD0002
B27: WAb0016 (antibody, V domains shown)
VH: B5 VH with G31N, M34I, D54S, A57G, V60Y
VL: B1 VL
notes: constant regions not tied to this antibody; also called WAb CD0016
B28: WAb0004 (antibody, V domains shown)
VH: B10 VH with Y27F, S31D, N54E, G57S, N59I, A61D, N63K, V102I
VL: B1 VL
notes: constant regions not tied to this antibody; also called WAb CD0004
B29: WAb0005 (antibody, V domains shown)
VH: B1 VH with S28T, T30I, S31G, N32S, M34V
VL: B1 VL with N52S
notes: constant regions not tied to this antibody; also called WAb CD0005
B30: WAb0008 (antibody, V domains shown)
VH: B1 VH with S28T, N32H, M34I, H35Q, Y100T
VL: B1 VL
notes: WAb0006 VL + mouse kappa constant; also called WAb CD0008; WAb008
B31: WAb0015 (antibody, V domains shown)
VH: B5 VH with G31N, M34I, A57G, V60Y
VL: B1 VL
notes: constant regions not tied to this antibody; also called WAb CD0015
B32: WAb0012 (antibody, V domains shown)
VH: B1 VH with S28T, S31G, N32Y
VL: B1 VL with S27Q, V29I
notes: constant regions not tied to this antibody; also called WAb CD0012
B33: WAb0006 (antibody, V domains shown)
VH: B1 VH with S28T, N32H, M34I, H35Q, Y100T
VL: B1 VL
notes: light chain is WAL0921 (human kappa) with Q27S; also called WAb CD0006; original backup candidate
B34: WAb0007 (antibody, V domains shown)
VH: B1 VH with S28T, T30I, S31G, N32S, M34V
VL: B1 VL with N52S
notes: also called WAb CD0007
B35: WAb0018 (antibody, V domains shown)
VH: B1 VH with S28T, S31N, N32Y
VL: B1 VL with R26S, V29I
notes: constant regions not tied to this antibody; also called WAb CD0018
B36: WAb0010 (antibody, V domains shown)
VH: B1 VH with S28T, S31G, M34V
VL: B1 VL
notes: constant regions not tied to this antibody; also called WAb CD0010
B37: WAb0017 (antibody, V domains shown)
VH: B1 VH with S28T, T30S, S31A, N32Y
VL: B1 VL with S24R, S27Q
notes: constant regions not tied to this antibody; also called WAb CD0017
B38: WAb0003 (antibody, V domains shown)
VH: B10 VH with Y27F, S31D, N54E, S55N, G57S, N59I, A61D, N63K, V102I
VL: B1 VL
notes: constant regions not tied to this antibody; also called WAb CD0003
B39: WAb0011 (antibody, V domains shown)
VH: B1 VH with S28T, S31G, N32S, M34V
VL: B1 VL
notes: constant regions not tied to this antibody; also called WAb CD0011
B40: WAb0013 (antibody, V domains shown)
VH: B1 VH with S28T, S31N, N32Y, N57S, D61A
VL: B1 VL with S27Q
notes: constant regions not tied to this antibody; also called WAb CD0013

target: T1, cynomolgus soluble urokinase plasminogen activator receptor (suPAR) (cynomolgus, UniProt Q9GK78 23-303, limits assumed); assay: BLI (Octet) off-rate screen of scFv clones
T1 construct: Column head says only 'cynomologus'; also called cynomolgus suPAR; cynomolgus uPAR
T1 sequence (Q9GK78 23-303 limits assumed): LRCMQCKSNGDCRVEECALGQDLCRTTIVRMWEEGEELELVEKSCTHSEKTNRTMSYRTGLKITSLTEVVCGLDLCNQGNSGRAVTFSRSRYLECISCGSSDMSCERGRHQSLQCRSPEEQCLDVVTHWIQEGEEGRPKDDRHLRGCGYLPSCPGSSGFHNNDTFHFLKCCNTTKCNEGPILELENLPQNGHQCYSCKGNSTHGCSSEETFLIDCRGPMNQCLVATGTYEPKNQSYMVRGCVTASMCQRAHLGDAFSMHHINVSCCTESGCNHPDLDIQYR

koff | Binder
0.000354 s⁻¹ | B1
0.000851 s⁻¹ | B2
0.000168 s⁻¹ | B3
0.000315 s⁻¹ | B4
0.000464 s⁻¹ | B5
0.000237 s⁻¹ | B6
0.000824 s⁻¹ | B7
0.000265 s⁻¹ | B8
0.000767 s⁻¹ | B9
0.000202 s⁻¹ | B10
0.00124 s⁻¹ | B11
0.000375 s⁻¹ | B12
0.000298 s⁻¹ | B13
0.000455 s⁻¹ | B14
0.000123 s⁻¹ | B15
0.000666 s⁻¹ | B16
0.000669 s⁻¹ | B17
0.000775 s⁻¹ | B18
0.000548 s⁻¹ | B19
7.69e-05 s⁻¹ | B20
0.000435 s⁻¹ | B21
0.000352 s⁻¹ | B22
0.000457 s⁻¹ | B23

target: T2, human soluble urokinase plasminogen activator receptor (suPAR) (human, UniProt Q03405 23-303, limits assumed); assay: BLI (Octet) off-rate screen of scFv clones
T2 construct: Column head says only 'human'; also called hsuPAR; human suPAR
T2 sequence (Q03405 23-303 limits assumed): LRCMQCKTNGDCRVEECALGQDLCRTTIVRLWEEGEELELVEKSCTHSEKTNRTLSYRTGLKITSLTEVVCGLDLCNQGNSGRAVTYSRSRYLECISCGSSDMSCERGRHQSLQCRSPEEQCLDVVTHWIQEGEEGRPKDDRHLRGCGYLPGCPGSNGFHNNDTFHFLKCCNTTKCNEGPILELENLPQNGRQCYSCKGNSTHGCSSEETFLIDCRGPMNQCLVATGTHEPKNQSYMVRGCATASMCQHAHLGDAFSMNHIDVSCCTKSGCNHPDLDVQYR

koff | Binder
0.00544 s⁻¹ | B1
0.006 s⁻¹ | B2
0.00335 s⁻¹ | B3
0.00533 s⁻¹ | B4
0.00384 s⁻¹ | B5
0.00431 s⁻¹ | B6
0.00517 s⁻¹ | B7
0.00535 s⁻¹ | B8
0.00208 s⁻¹ | B9
0.00547 s⁻¹ | B10
0.00345 s⁻¹ | B11
0.00345 s⁻¹ | B12
0.00165 s⁻¹ | B13
0.00367 s⁻¹ | B14
0.00507 s⁻¹ | B15
0.00384 s⁻¹ | B16
0.001 s⁻¹ | B17
0.00555 s⁻¹ | B18
0.00284 s⁻¹ | B19
0.00471 s⁻¹ | B20
0.00116 s⁻¹ | B21
0.00477 s⁻¹ | B22
0.00452 s⁻¹ | B23

target: T3, human soluble urokinase plasminogen activator receptor (suPAR) (human, UniProt Q03405 23-303, limits assumed); assay: dissociation rate (kdis) on human suPAR; method not stated
T3 construct: also called hsuPAR; human suPAR
T3 sequence (Q03405 23-303 limits assumed): as above

koff | Binder
3.04e-07 s⁻¹ | B24
3.47e-07 s⁻¹ | B25
8.37e-05 s⁻¹ | B26
0.000213 s⁻¹ | B27
2.61e-07 s⁻¹ | B28
3.97e-07 s⁻¹ | B29
2.83e-07 s⁻¹ | B30
2.97e-07 s⁻¹ | B31
2.93e-07 s⁻¹ | B32
3.39e-07 s⁻¹ | B33
2.76e-07 s⁻¹ | B34
2.6e-07 s⁻¹ | B35
3.89e-07 s⁻¹ | B36
3.63e-07 s⁻¹ | B37
3.57e-07 s⁻¹ | B38
2.36e-07 s⁻¹ | B39
2.44e-07 s⁻¹ | B40
